Consider six sequences from the supplement of paper PMC5998384.

Series [1] concerns HeLa Kyoto. The series is described as follows: solubility in G1/S (NP-40 vs SDS abundance) (log2 ratio); higher = more soluble. The following applies: cell cycle stage: G1/S.
Series [2] deals with HeLa Kyoto. Description: thermal stability score vs G1/S (z-score of summed log2 fold changes over temperatures); higher = more thermally stable than in G1/S.
For series [3], the system named is HeLa Kyoto. Description: solubility change mitosis vs G1/S (difference of NP-40 vs SDS log2 ratios) (log2 ratio difference); higher = more soluble in mitosis.
The subject of series [4] is HeLa Kyoto. The series is described as follows: melting temperature (median over replicates), in situ; higher = more thermally stable.
Setting [5] is: cell cycle stage: early G1 (4.5 h after nocodazole release).
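Wherever melting temperature (median over replicates), in situ is given: HeLa Kyoto cells synchronized by double thymidine or nocodazole block, proteins quantified by TMT10plex mass spectrometry, three independent biological replicates.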
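Wherever solubility change mitosis vs G1/S (difference of NP-40 vs SDS log2 ratios) is given: synchronized HeLa Kyoto cells (double thymidine block for G1/S, nocodazole release for mitosis), protein amounts in NP-40 versus SDS lysates quantified by mass spectrometry, three biological replicates.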
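Wherever solubility in G1/S (NP-40 vs SDS abundance) is given: HeLa Kyoto cells arrested at G1/S by double thymidine block, proteins quantified by TMT10plex mass spectrometry in mild NP-40 versus SDS extracts, three biological replicates.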
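Wherever thermal stability score vs G1/S (z-score of summed log2 fold changes over temperatures) is given: synchronized HeLa Kyoto cells, proteins quantified by TMT10plex mass spectrometry, three biological replicates, mitosis taken 0.5 h after nocodazole release, G1/S directly after double thymidine block.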

Take “MSDSKCDSQFYSVQVADSTFTVLKRYQQLKPIGSGAQGIVCAAFDTVLGINVAVKKLSRPFQNQTHAKRAYRELVLLKCVNHKNIISLLNVFTPQKTLEEFQDVYLVMELMDANLCQVIHMELDHERMSYLLYQMLCGIKHLHSAGIIHRDLKPSNIVVKSDCTLKILDFGLARTACTNFMMTPYVVTRYYRAPEVILGMGYKENVDIWSVGCIMGELVKGCVIFQGTDHIDQWNKVIEQLGTPSAEFMKKLQPTVRNYVENRPKYPGIKFEELFPDWIFPSESERDKIKTSQARDLLSKMLVIDPDKRISVDEALRHPYITVWYDPAEAEAPPPQIYDAQLEEREHAIEEWKELIYKEVMDWEERSKNGVVKDQPSDAAVSSNATPSQSSSINDISSMSTEQTLASDTDSSLDASTGPLEGCR [MAPK9]”: in the series with HeLa Kyoto [1], the “solubility in G1/S (log2)” value was -0.0645. Besides, the thermal stability score in the series with HeLa Kyoto [2] (setting [5]) is -0.633; with HeLa Kyoto [2] (cell cycle stage: mitosis) it was -0.772. Further, the “solubility change mitosis (log2)” value in the series with HeLa Kyoto [3] was -0.147. Besides, in the series with HeLa Kyoto [4] (cell cycle stage: G1/S), the melting temperature came out at 50.9 °C.

As to “MSDSWVPNSASGQDPGGRRRAWAELLAGRVKREKYNPERAQKLKESAVRLLRSHQDLNALLLEVEGPLCKKLSLSKVIDCDSSEAYANHSSSFIGSALQDQASRLGVPVGILSAGMVASSVGQICTAPAETSHPVLLTVEQRKKLSSLLEFAQYLLAHSMFSRLSFCQELWKIQSSLLLEAVWHLHVQGIVSLQELLESHPDMHAVGSWLFRNLCCLCEQMEASCQHADVARAMLSDFVQMFVLRGFQKNSDLRRTVEPEKMPQVTVDVLQRMLIFALDALAAGVQEESSTHKIVRCWFGVFSGHTLGSVISTDPLKRFFSHTLTQILTHSPVLKASDAVQMQREWSFARTHPLLTSLYRRLFVMLSAEELVGHLQEVLETQEVHWQRVLSFVSALVVCFPEAQQLLEDWVARLMAQAFESCQLDSMVTAFLVVRQAALEGPSAFLSYADWFKASFGSTRGYHGCSKKALVFLFTFLSELVPFESPRYLQVHILHPPLVPGKYRSLLTDYISLAKTRLADLKVSIENMGLYEDLSSAGDITEPHSQALQDVEKAIMVFEHTGNIPVTVMEASIFRRPYYVSHFLPALLTPRVLPKVPDSRVAFIESLKRADKIPPSLYSTYCQACSAAEEKPEDAALGVRAEPNSAEEPLGQLTAALGELRASMTDPSQRDVISAQVAVISERLRAVLGHNEDDSSVEISKIQLSINTPRLEPREHMAVDLLLTSFCQNLMAASSVAPPERQGPWAALFVRTMCGRVLPAVLTRLCQLLRHQGPSLSAPHVLGLAALAVHLGESRSALPEVDVGPPAPGAGLPVPALFDSLLTCRTRDSLFFCLKFCTAAISYSLCKFSSQSRDTLCSCLSPGLIKKFQFLMFRLFSEARQPLSEEDVASLSWRPLHLPSADWQRAALSLWTHRTFREVLKEEDVHLTYQDWLHLELEIQPEADALSDTERQDFHQWAIHEHFLPESSASGGCDGDLQAACTILVNALMDFHQSSRSYDHSENSDLVFGGRTGNEDIISRLQEMVADLELQQDLIVPLGHTPSQEHFLFEIFRRRLQALTSGWSVAASLQRQRELLMYKRILLRLPSSVLCGSSFQAEQPITARCEQFFHLVNSEMRNFCSHGGALTQDITAHFFRGLLNACLRSRDPSLMVDFILAKCQTKCPLILTSALVWWPSLEPVLLCRWRRHCQSPLPRELQKLQEGRQFASDFLSPEAASPAPNPDWLSAAALHFAIQQVREENIRKQLKKLDCEREELLVFLFFFSLMGLLSSHLTSNSTTDLPKAFHVCAAILECLEKRKISWLALFQLTESDLRLGRLLLRVAPDQHTRLLPFAFYSLLSYFHEDAAIREEAFLHVAVDMYLKLVQLFVAGDTSTVSPPAGRSLELKGQGNPVELITKARLFLLQLIPRCPKKSFSHVAELLADRGDCDPEVSAALQSRQQAAPDADLSQEPHLF [FANCA]”, the “solubility in G1/S (log2)” value in the series on HeLa Kyoto [1] is -0.182. Also, the thermal stability score in the series on HeLa Kyoto [2] (setting [5]) worked out at 0.523; in the series on HeLa Kyoto [2] (cell cycle stage: mitosis), 1.07. Besides, the “solubility change mitosis (log2)” value with HeLa Kyoto [3] was determined as 0.00288. Moreover, the melting temperature with HeLa Kyoto [4] (cell cycle stage: G1/S) was 47.9 °C; in the series on HeLa Kyoto [4] (cell cycle stage: mitosis), 48.3 °C.

Take “MSDVEENNFEGRESRSQSKSPTGTPARVKSESRSGSRSPSRVSKHSESHSRSRSKSRSRSRRHSHRRYTRSRSHSHSHRRRSRSRSYTPEYRRRRSRSHSPMSNRRRHTGSRANPDPNTCLGVFGLSLYTTERDLREVFSRYGPLSGVNVVYDQRTGRSRGFAFVYFERIDDSKEAMERANGMELDGRRIRVDYSITKRAHTPTPGIYMGRPTHSGGGGGGGGGGGGGGGGRRRDSYYDRGYDRGYDRYEDYDYRYRRRSPSPYYSRYRSRSRSRSYSPRRY [TRA2A]”: the “solubility in G1/S (log2)” value with HeLa Kyoto [1] is -1.11. For the same sequence, the thermal stability score was 1.2 in the series on HeLa Kyoto [2] (setting [5]) and 1.92 in the series with HeLa Kyoto [2] (cell cycle stage: mitosis). Also, the “solubility change mitosis (log2)” value in the series on HeLa Kyoto [3] worked out at 0.522. Besides, the melting temperature with HeLa Kyoto [4] (cell cycle stage: G1/S) stood at 49.1 °C; with HeLa Kyoto [4] (cell cycle stage: mitosis) it was 49.5 °C.

As for “MSELEQLRQEAEQLRNQIRDARKACGDSTLTQITAGLDPVGRIQMRTRRTLRGHLAKIYAMHWGTDSRLLVSASQDGKLIIWDSYTTNKVHAIPLRSSWVMTCAYAPSGNFVACGGLDNICSIYSLKTREGNVRVSRELPGHTGYLSCCRFLDDNQIITSSGDTTCALWDIETGQQTVGFAGHSGDVMSLSLAPDGRTFVSGACDASIKLWDVRDSMCRQTFIGHESDINAVAFFPNGYAFTTGSDDATCRLFDLRADQELLMYSHDNIICGITSVAFSRSGRLLLAGYDDFNCNIWDAMKGDRAGVLAGHDNRVSCLGVTDDGMAVATGSWDSFLKIWN [GNB2]”, the “solubility in G1/S (log2)” value in the series on HeLa Kyoto [1] is -0.771. Also, the thermal stability score with HeLa Kyoto [2] (setting [5]) is -0.768; in the series with HeLa Kyoto [2] (cell cycle stage: mitosis), -0.878. Further, the “solubility change mitosis (log2)” value in the series with HeLa Kyoto [3] is -0.136. Moreover, the melting temperature came to 55.6 °C with HeLa Kyoto [4] (cell cycle stage: G1/S) and 55.5 °C in the series with HeLa Kyoto [4] (cell cycle stage: mitosis).

For the sequence “MSEPIRVLVTGAAGQIAYSLLYSIGNGSVFGKDQPIILVLLDITPMMGVLDGVLMELQDCALPLLKDVIATDKEDVAFKDLDVAILVGSMPRREGMERKDLLKANVKIFKSQGAALDKYAKKSVKVIVVGNPANTNCLTASKSAPSIPKENFSCLTRLDHNRAKAQIALKLGVTANDVKNVIIWGNHSSTQYPDVNHAKVKLQGKEVGVYEALKDDSWLKGEFVTTVQQRGAAVIKARKLSSAMSAAKAICDHVRDIWFGTPEGEFVSMGVISDGNSYGVPDDLLYSFPVVIKNKTWKFVEGLPINDFSREKMDLTAKELTEEKESAFEFLSSA [MDH1]”, the “solubility in G1/S (log2)” value with HeLa Kyoto [1] was determined as 0.43. Also, the thermal stability score is -0.848 in the series with HeLa Kyoto [2] (setting [5]) and 0.036 with HeLa Kyoto [2] (cell cycle stage: mitosis). Moreover, in the series with HeLa Kyoto [3], the “solubility change mitosis (log2)” value is -0.111. Further, the melting temperature was found to be 57.2 °C in the series on HeLa Kyoto [4] (cell cycle stage: G1/S) and 56.8 °C in the series with HeLa Kyoto [4] (cell cycle stage: mitosis).

For the sequence “MSEQSICQARASVMVYDDTSKKWVPIKPGQQGFSRINIYHNTASNTFRVVGVKLQDQQVVINYSIVKGLKYNQATPTFHQWRDARQVYGLNFASKEEATTFSNAMLFALNIMNSQEGGPSSQRQVQNGPSPDEMDIQRRQVMEQHQQQRQESLERRTSATGPILPPGHPSSAASAPVSCSGPPPPPPPPVPPPPTGATPPPPPPLPAGGAQGSSHDESSMSGLAAAIAGAKLRRVQRPEDASGGSSPSGTSKSDANRASSGGGGGGLMEEMNKLLAKRRKAASQSDKPAEKKEDESQMEDPSTSPSPGTRAASQPPNSSEAGRKPWERSNSVEKPVSSILSRTPSVAKSPEAKSPLQSQPHSRMKPAGSVNDMALDAFDLDRMKQEILEEVVRELHKVKEEIIDAIRQELSGISTT [EVL]”, in the series with HeLa Kyoto [1], the “solubility in G1/S (log2)” value came to 0.231. Moreover, the results for the thermal stability score in the series on HeLa Kyoto [2] (setting [5]) and with HeLa Kyoto [2] (cell cycle stage: mitosis) were -0.133 and -0.273, respectively. The “solubility change mitosis (log2)” value in the series on HeLa Kyoto [3] was -0.143. The sequence further showed a melting temperature with HeLa Kyoto [4] (cell cycle stage: G1/S) of 50 °C.
